From patent publication US20230416347A1
Substitutions are numbered along the chain they refer to.

B1: VH10/VL4 (antibody, V domains shown)
VH: QVQLQESGPGLVKPSETLSLTCTVSGFSLSSYGVSWIRQPPGKGLEWLGVIWGDGSTNYHPNLMSRLSISKDTSKSQVLLKLSSVTAADTAVYYCVTLDYWGQGTSVTVSS
VL: DVVMTQSPLSLPVTLGQPASISCRSSQSLVHRNGNTYLHWFQQRPGQSPRLLIYKVSNRFSGVPDRFSGSGSGTDFTLKISRVEAEDVGVYFCFQTTYVPNTFGGGTKLEIK
B2: VH6/VL3 (antibody, V domains shown)
VH: B1 VH with I37V, S76N, V78F, L79S, V92T
VL: B1 VL with F41Y, Q42L, V90L
B3: VH8/VL4 (antibody, V domains shown)
VH: B1 VH with L48I, L67V, S68T, V78F, L79S
VL: B1 VL
B4: VH7/VL4 (antibody, V domains shown)
VH: B1 VH with L48I, L67V, S68T, S76N
VL: B1 VL

Experiments:
[1] = target: rVλ6Wil fibrils; assay: EuLISA on rVλ6Wil fibrils (FIG. 5A)
[2] = target: rVλ6Wil fibrils; assay: EuLISA on rVλ6Wil fibrils (FIG. 5B)

Binder | EC50 [1] | EC50 [2]
B1 | 17 nM | 
B2 | 95 nM | 95 nM
B3 | 16 nM | 
B4 | 75 nM | 
